Molecular target: myelin and lymphocyte protein 2 (MAL2) (rat (endogenous in WIF-B)) (UniProt Q7TPB7)
Test: co-IP

In the case of “polymeric immunoglobulin A-receptor (pIgA-R), mature form (from UniProt P15083 19-769)”, the percent of total pIgA-R coimmunoprecipitated (% of total pIgA-R) is reported as 1.

From publication PMC2904422
